Data published in paper doi:10.1101/2022.02.14.480375.

Target: S1PR1-SmBiT (S1P receptor-1 fused to the small fragment of split luciferase) (UniProt P21453)
Assay: split reporter

UniProt P21453, sequence (P21453 whole entry, the tested form may be a part): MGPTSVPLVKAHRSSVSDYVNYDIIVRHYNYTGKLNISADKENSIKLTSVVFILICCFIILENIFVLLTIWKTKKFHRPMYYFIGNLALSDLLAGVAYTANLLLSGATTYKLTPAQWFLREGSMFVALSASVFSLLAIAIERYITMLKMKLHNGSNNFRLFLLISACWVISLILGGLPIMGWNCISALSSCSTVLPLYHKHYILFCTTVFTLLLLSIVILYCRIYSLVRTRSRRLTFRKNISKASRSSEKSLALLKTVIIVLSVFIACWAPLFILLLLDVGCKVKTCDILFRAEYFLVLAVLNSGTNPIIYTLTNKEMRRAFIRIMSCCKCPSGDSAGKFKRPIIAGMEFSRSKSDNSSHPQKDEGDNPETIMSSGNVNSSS

T1/2 of β-arrestin activation with albumin-bound S1P (1 μM S1P): 16 min
Substance: LgBiT-beta-arrestin fusion protein (from UniProt P49407 1-418) (natural protein)
